{
  "source": "patent US20150377889",
  "key": {"[1]": {"tested_on": "recombinant wild type full-length human galectin-3, His-tagged (unphosphorylated)", "sequence (chain, as listed by the source)": "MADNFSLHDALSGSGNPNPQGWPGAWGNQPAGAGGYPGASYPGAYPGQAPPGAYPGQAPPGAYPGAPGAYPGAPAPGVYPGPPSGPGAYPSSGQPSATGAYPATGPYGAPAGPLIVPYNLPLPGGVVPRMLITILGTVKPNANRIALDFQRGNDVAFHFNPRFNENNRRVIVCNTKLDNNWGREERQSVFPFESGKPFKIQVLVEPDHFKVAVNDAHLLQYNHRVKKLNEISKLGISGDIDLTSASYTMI"}, "[2]": {"tested_on": "recombinant wild type galectin-3 phosphorylated in vitro by c-Abl (galectin-3 Tyr(P)-107), His-tagged"}, "[3]": {"tested_on": "galectin-3 secreted by PC3M cells after EGF (and PDGF) treatment, tyrosine phosphorylated (galectin-3 Tyr(P)-107)", "sequence (chain, as listed by the source)": "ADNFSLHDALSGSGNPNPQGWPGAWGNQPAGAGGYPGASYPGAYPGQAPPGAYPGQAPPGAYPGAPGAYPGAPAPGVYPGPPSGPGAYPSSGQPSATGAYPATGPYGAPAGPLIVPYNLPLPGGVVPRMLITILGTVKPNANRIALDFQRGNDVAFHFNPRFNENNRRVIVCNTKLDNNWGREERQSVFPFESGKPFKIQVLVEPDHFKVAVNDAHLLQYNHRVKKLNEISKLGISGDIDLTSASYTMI"}},
  "data": [
    {"substance": "active prostate specific antigen (PSA)", "values": [
      {"measurement": "cleavage of galectin-3 by PSA (2 h at room temperature, Western blot with anti-galectin-3 antibody)", "setting": "[1]", "result": "FIG. 1A demonstrated that phosphorylation of Tyr-107 blocks the cleavage of galectin-3 by PSA"},
      {"measurement": "cleavage of galectin-3 by PSA (2 h at room temperature, Western blot with anti-galectin-3 and anti-Tyr(P) antibodies)", "setting": "[2]", "result": "phosphorylation of Tyr-107 blocks the cleavage of galectin-3 by PSA"}
    ]},
    {"substance": "endogenous PSA secreted by LNCaP cells", "values": [
      {"measurement": "cleavage of secreted galectin-3 in conditioned medium of LNCaP/PC3M co-culture with and without EGF (Western blot with HL31)", "setting": "[3]", "result": "phosphorylation blocks cleavage of galectin-3 in conditioned medium"}
    ]},
    {"substance": "phosphatase and tensin homolog (PTEN)", "values": [
      {"measurement": "dephosphorylation of galectin-3 Tyr(P)-107 (PTEN for 2 hr at 30 C, pTyr and Gal-3 blots)", "setting": "[2]", "result": "This was then proven by phosphorylating galectin-3 in vitro with active c-Abl and then treating it with PTEN"}
    ]}
  ]
}
